In general, Kd refers to the equilibrium constant for the complex coming apart. A word on the koff: it is a measure of how fast the partners let go of each other. Broadly, the kon is the second-order rate constant of association. Read a low kon as slower complex formation.

Holding throughout (test): SPR Biacore, antigen captured, 25C, pH 7.4, HBS-EP
(In general: In SPR one partner is held on a chip, and binding of the other changes the refractive index at the surface.)

One assay has as its target T1, hANGPTL3(17-170)-His (human, UniProt Q9Y5C1 17-170).
T1 construct: also called N-terminal coiled-coil domain of hANGPTL3 with a C-terminal hexahistidine tag; Human ANGPTL3 (17-170)-His
T1 sequence: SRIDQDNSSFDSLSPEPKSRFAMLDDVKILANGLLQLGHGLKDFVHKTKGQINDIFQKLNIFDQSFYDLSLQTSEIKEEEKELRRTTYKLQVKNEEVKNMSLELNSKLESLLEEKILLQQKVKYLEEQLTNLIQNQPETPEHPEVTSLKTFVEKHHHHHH
On the procedure:
(§1) All kinetic binding experiments were performed at 25° C. or 37° C. on a BIACORE™ T200 label-free molecular interaction instrument (GE Healthcare) using a CM5 sensor chip. Briefly, an antigen capture surface was generated by covalently coupling either an anti-mouse IgG-specific antibody (anti-mFc; GE Healthcare; catalog #BR-1008-38) or an anti-pentahistidine-specific antibody (Qiagen; catalog #34660) to the surface of a CM5 sensor chip using a standard amine coupling method.

The target in a further assay is T2, MfANGPTL3(17-170)-mmH (Macaca fascicularis).
T2 construct: also called N-terminal coiled-coil domain of ANGPTL3 from Macaca fascicularis with myc-myc-hexahistidine tag; Monkey ANGPTL3 (17-170)-mmH
T2 chain: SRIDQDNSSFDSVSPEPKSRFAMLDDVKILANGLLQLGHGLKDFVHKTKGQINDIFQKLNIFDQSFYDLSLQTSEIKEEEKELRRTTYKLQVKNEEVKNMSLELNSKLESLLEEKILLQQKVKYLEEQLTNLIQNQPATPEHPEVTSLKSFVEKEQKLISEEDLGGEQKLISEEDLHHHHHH
On the procedure: as §1

Another assay addresses T3, rANGPTL3(17-240)-mmH (Rattus norvegicus).
T3 construct: also called N-terminal coiled-coil domain of ANGPTL3 from Rattus norvegicus with myc-myc-hexahistidine tag
T3 chain: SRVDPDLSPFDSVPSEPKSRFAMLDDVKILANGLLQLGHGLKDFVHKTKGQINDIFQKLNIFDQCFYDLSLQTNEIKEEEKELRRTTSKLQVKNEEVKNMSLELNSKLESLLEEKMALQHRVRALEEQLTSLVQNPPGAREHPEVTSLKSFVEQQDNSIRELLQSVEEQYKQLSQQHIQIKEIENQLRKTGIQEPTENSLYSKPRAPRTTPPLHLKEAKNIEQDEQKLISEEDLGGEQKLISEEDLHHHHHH
Here is the method: as §1

B1: H4H1276S (antibody, IgG4, V domains shown)
VH: EVQLVESGGGVIQPGGSLRLSCAASGFTFDDYAMNWVRQGPGKGLEWVSAISGDGGSTYYADSVKGRFTISRDNSKNSLYLQMNSLRAEDTAFFYCAKDLRNTIFGVVIPDAFDIWGQGTMVTVSS
VL: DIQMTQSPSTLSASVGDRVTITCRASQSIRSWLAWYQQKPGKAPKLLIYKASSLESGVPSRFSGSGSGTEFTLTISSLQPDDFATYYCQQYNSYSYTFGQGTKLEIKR
As for B1, in the assay with hANGPTL3(17-170)-His, the Kd came out at 0.938 nM, the koff is 0.000912 s⁻¹, the kon came out at 973000 M⁻¹ s⁻¹ and the t1/2 was found to be 12.7 min. Moreover, in the assay with MfANGPTL3(17-170)-mmH, the Kd turned out to be 0.396 nM, the off-rate (koff) is 0.000535 s⁻¹, the on-rate (kon) was 1.35e+06 M⁻¹ s⁻¹ and the t1/2 worked out at 21.6 min. In the assay with rANGPTL3(17-240)-mmH, this molecule returned a Kd of 0.53 nM, a dissociation rate constant (koff) of 0.000718 s⁻¹, a kon of 1.35e+06 M⁻¹ s⁻¹ and a t1/2 of 16.1 min.

The values are drawn from patent US20150197564A1 (Regeneron, published 2015).
